{"source": "paper PMC7806768", "biological_target": "R.CcoLI(D225N) mutant (Campylobacter coli)", "assay": "SEC; Superdex 200 HR 10/30; samples 2.3 uM; 10 mM MES pH 6.0, 200 mM NaCl, 1 mM TCEP; size estimated against marker proteins (aldolase, conalbumin, chymotrypsinogen A, ribonuclease A)"}
{"substance": "R.CcoLI(D225N) mutant (enzyme)", "values": [{"measurement": "stoichiometry N", "value": 2}]}
